A word on the Kd: it is a measure of binding affinity in units of concentration.

Where a chain is given by its changes, count along the chain named. Names may count otherwise.

Sequences and labels used below:
T1: Biotinylated human BSSL (human, UniProt P19835 21-753, Biotinylated on glycosacarides, 30-40 biotin/BSSL)
T1 construct: hBSSL biotinylated in house; also called b-hBSSL; human BSSL-biotin
T1 sequence: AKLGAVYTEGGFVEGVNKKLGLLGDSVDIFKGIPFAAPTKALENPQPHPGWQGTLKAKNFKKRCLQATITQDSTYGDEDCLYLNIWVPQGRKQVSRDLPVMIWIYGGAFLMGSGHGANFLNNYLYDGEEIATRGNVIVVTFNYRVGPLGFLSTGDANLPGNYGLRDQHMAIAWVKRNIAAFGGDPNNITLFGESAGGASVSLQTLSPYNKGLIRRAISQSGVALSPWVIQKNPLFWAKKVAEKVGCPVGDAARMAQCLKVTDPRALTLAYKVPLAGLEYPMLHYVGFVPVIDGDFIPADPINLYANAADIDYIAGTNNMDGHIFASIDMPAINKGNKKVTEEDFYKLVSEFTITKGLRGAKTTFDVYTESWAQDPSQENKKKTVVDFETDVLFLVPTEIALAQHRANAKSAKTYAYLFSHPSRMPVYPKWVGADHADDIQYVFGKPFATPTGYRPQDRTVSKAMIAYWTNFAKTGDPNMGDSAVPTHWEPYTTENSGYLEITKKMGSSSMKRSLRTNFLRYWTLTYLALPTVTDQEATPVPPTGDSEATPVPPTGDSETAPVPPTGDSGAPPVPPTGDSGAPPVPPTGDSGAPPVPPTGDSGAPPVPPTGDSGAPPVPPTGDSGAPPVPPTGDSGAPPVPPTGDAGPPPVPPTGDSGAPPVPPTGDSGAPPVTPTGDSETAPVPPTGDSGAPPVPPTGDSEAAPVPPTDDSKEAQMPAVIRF

T2: Human BSSL (bile salt-stimulated lipase), native (human, UniProt P19835 21-753)
T2 construct: Native full-length protein purified from human milk (Astra Hässle AB); also called hBSSL; non-biotinylated human BSSL
T2 sequence: T1 sequence

T3: Mouse BSSL, recombinant (mouse, UniProt Q64285 21-599)
T3 construct: Bought (R&D Systems, Cat. no 5658-CE); also called mBSSL; murine BSSL
T3 sequence: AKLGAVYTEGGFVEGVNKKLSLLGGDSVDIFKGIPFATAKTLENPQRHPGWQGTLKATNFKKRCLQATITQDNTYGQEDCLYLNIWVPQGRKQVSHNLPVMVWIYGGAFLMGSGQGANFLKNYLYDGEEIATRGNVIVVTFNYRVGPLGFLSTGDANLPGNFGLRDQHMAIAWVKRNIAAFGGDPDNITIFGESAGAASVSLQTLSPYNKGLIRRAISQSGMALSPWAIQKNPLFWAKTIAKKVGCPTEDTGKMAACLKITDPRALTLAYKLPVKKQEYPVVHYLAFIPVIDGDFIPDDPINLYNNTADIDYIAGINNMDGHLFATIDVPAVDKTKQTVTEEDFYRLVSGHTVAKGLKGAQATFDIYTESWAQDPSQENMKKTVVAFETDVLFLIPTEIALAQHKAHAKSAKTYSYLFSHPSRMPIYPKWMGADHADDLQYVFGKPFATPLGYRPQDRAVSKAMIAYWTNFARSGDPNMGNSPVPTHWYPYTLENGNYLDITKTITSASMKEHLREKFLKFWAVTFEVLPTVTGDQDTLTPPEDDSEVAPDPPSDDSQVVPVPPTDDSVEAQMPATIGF

B1: S-SL048-10 hIgG4 S228P (antibody, V domains shown)
VH: QVQLVQSGAEVKKPGASVKVSCKASGYTFTSYNMHWVRQAPGQGLEWIGVINPSDGYTSYAQKFQGRVTMTRDTSTSTVYMELSSLRSEDTAVYYCARDYYGSSPLGYWGQGTLVTVSS
VL: DIQMTQSPSSLSASVGDRVTITCRASPSISYLNWYQQKPGKAPKLLIYATSRLPSGVPSRFSGSGSGTDFTLTISSLQPEDFATYYCQQRSSSPTFGQGTKLEIK
notes: Tested as human IgG4 S228P
B2: S-SL048-107 hIgG4 S228P (antibody, V domains shown)
VH: B1 VH with I48M, S54G, Y57A, A61N
VL: B1 VL with R52S
notes: Tested as human IgG4 S228P
B3: S-SL048-109 hIgG4 S228P (antibody, V domains shown)
VH: B1 VH with I48M, Y57A, Q65K
VL: B1 VL with P54A
notes: Tested as human IgG4 S228P
B4: S-SL048-81 hIgG4 S228P (antibody, V domains shown)
VH: B1 VH with S54G, Y57A
VL: B1 VL with P27S, L32M, N33H, T50A, R52S, P54Q, Q88H
notes: Tested as human IgG4 S228P
B5: S-SL048-43 hIgG4 S228P (antibody, V domains shown)
VH: B1 VH with I48M, S54G, Y57A, A61T
VL: B1 VL with L32M, T50A, R52S
notes: Tested as human IgG4 S228P
B6: S-SL048-17 hIgG4 S228P (antibody, V domains shown)
VH: B1 VH with I48M, S54G, A61T, Q65K
VL: B1 VL with P27Q, T50A, R52K
notes: Tested as human IgG4 S228P
B7: S-SL048-79 hIgG4 S228P (antibody, V domains shown)
VH: B1 VH with I48M, Y57A
VL: B1 VL with R24S, P27Q, T50A, Q88H, S93Y
notes: Tested as human IgG4 S228P
B8: S-SL048-18 hIgG4 S228P (antibody, V domains shown)
VH: B1 VH with I48M, Y57A, A61T, Q65K
VL: B1 VL with P27S, P54Q, Q88H, S93T
notes: Tested as human IgG4 S228P
B9: S-SL048-104 hIgG4 S228P (antibody, V domains shown)
VH: B1 VH with I48M, S54G, Y57A, A61D, Q65K
VL: B1 VL with R24S, P27S, N33H, T50A, P54A, Q88H, S93T
notes: Tested as human IgG4 S228P
B10: S-SL048-108 hIgG4 S228P (antibody, V domains shown)
VH: B1 VH with Y57A, Q65K
VL: B1 VL with R24S, R52S, P54A
notes: Tested as human IgG4 S228P

One experiment addresses T1, Biotinylated human BSSL. The experiment in a line: flow cytometry displacement assay; 1.5 ug antibody, 1 ug b-hBSSL. On the procedure: (§1) The 28 BSSL-specific hIgG4 antibodies and the five reference antibodies at different concentrations (ranging from 0.5 μg to 3.0 μg per reaction; see Table 10) were added to b-hBSSL (1 μg per reaction, see Table 2) in round-bottom polystyrene tubes, lx PBS (pH 7.4) was added to a final volume of 20 μl and the antibody/b-hBSSL mixtures were incubated for 30 min. at +4° C. to facilitate binding of antibodies to BSSL. Buffy coat (50 μl) was then added to each antibody/b-hBSSL mixture and incubation continued for another 30 min at +4° C. Thereafter, 2 ml of FACS lysing solution (BD Biosciences) was added and the cells were incubated for 10 min at room temperature in order to lyse erythrocytes and fix the white blood cells. The cells were then centrifuged for 5 min. at 200×g, the resulting pellets were washed by adding 2 ml of FACS buffer (1×PBS supplemented with 1% FCS and 0.1% NaN3) and centrifuged again. Finally, the supernatants were discarded and the cells were resuspended in the last drop of liquid, approximately 50 μl.
(§2) 5 μl of BV421-labelled anti-human CD14 (BD Biosciences) and 5 μl of BB515-labelled streptavidin (BD Biosciences) was added to each tube and incubated for 30 min, at +4° C., protected from light. Thereafter, cells were washed twice with FACS buffer, resuspended in 500 μl FACS buffer, and run on BD LSRII flow cytometer (BD Biosciences). Finally, data were analyzed using FlowJo software (BD Biosciences).
In general terms: Flow cytometry measures light scatter and fluorescence of single cells or particles in a stream.
Turning to B1, the “percentage reduction of b-hBSSL binding to CD14+ monocytes” value (shortened to “percentage reduction of b-hBSSL binding”) is 34%.

Regarding B2, the “percentage reduction of b-hBSSL binding” value was 37%.

Consider B3, for which the “percentage reduction of b-hBSSL binding” value came to 38%.

As to B4, the “percentage reduction of b-hBSSL binding” value was determined as 31%.

On to B5, for which the “percentage reduction of b-hBSSL binding” value is 37%.

On to B6, for which the “percentage reduction of b-hBSSL binding” value amounted to 16%.

For B7, the “percentage reduction of b-hBSSL binding” value is 20%.

Regarding B8, the “percentage reduction of b-hBSSL binding” value stood at 58%.

On to B9, for which the “percentage reduction of b-hBSSL binding” value amounted to 2%.

With B10, the “percentage reduction of b-hBSSL binding” value turned out to be 41%.

A further experiment addresses T2, Human BSSL (bile salt-stimulated …). In words: SPR single cycle kinetics, hIgG4 S228P captured by anti-Fab. As for the experimental part: (§3) Kinetic parameters of the hIgG4 S228P clones were determined by SPR using BIACORE® T200 (GE Healthcare). Single cycle kinetics was used to measure the affinity of the purified hIgG4 molecules to human and mouse BSSL. An anti-Fab antibody (GE Healthcare, #28958325) was immobilized on a CM5 S sensor chip by primary amine coupling using NHS-EDC chemistry. hIgG4 was captured by the anti-Fab antibody, and subsequently, five different concentrations of hBSSL (1:5 dilutions starting from 50 nM) or mBSSL (1:5 dilutions starting from 500 nM) were injected over the surface. The sensor chip surface was regenerated with 10 mM glycine-HCl pH 2.1. For binding to human BSSL, single cycle kinetic data was fitted to a 1:1 binding model and kinetic parameters were retrieved using software BlAevaluation. For mouse BSSL, a steady state analysis was performed by plotting the response level at equilibrium against each concentration, and KD values were retrieved by the BlAevalution software.
For B1, the Kd stood at 2.2 nM.

Consider B2, for which the Kd worked out at 1.2 nM.

For the molecule B3, the Kd was 1.4 nM.

For B4, the Kd is 4.4 nM.

Regarding B5, the Kd worked out at 1.2 nM.

For the molecule B6, the Kd is 4.3 nM.

As for B7, the Kd amounted to 5 nM.

Regarding B8, the dissociation constant Kd was determined as 2.3 nM.

B9: the Kd was 3.3 nM.

B10: the Kd amounted to 1.3 nM.

The target in another experiment is T3, Mouse BSSL, recombinant. In words: SPR steady state, hIgG4 S228P captured by anti-Fab. As for the experimental part: as §3
Take B1: the Kd came out at 57 nM.

As to B2, the Kd came to 98 nM.

As to B3, the Kd turned out to be 353 nM.

Turning to B4, the Kd turned out to be 60 nM.

Turning to B5, the Kd was determined as 137 nM.

Regarding B6, the Kd amounted to 68 nM.

For B7, the Kd is 48 nM.

On to B8, for which the Kd was 68 nM.

Consider B9, for which the Kd came to 111 nM.

As for B10, the Kd came to 149 nM.

A further experiment deals with T1, Biotinylated human BSSL. The experiment in a line: flow cytometry displacement assay; 3.0 ug antibody, 1 ug b-hBSSL. As for the experimental part:
as §1, §2
On to B1, for which the “percentage reduction of b-hBSSL binding” value was found to be 42%.

Turning to B2, the “percentage reduction of b-hBSSL binding” value was 49%.

Consider B3, for which the “percentage reduction of b-hBSSL binding” value was 51%.

Consider B4, for which the “percentage reduction of b-hBSSL binding” value was determined as 62%.

With B5, the “percentage reduction of b-hBSSL binding” value stood at 55%.

Turning to B6, the “percentage reduction of b-hBSSL binding” value came to 36%.

Regarding B7, the “percentage reduction of b-hBSSL binding” value was 52%.

For B8, the “percentage reduction of b-hBSSL binding” value was determined as 61%.

As for B9, the “percentage reduction of b-hBSSL binding” value was 44%.

Consider B10, for which the “percentage reduction of b-hBSSL binding” value was determined as 48%.

For the origin of these results see US20220267469A1 (LIPUM, published 2022).
